For one experiment, the target named is T1, Trs120-TAP (budding yeast, UniProt Q04183 1-1289).
T1 sequence: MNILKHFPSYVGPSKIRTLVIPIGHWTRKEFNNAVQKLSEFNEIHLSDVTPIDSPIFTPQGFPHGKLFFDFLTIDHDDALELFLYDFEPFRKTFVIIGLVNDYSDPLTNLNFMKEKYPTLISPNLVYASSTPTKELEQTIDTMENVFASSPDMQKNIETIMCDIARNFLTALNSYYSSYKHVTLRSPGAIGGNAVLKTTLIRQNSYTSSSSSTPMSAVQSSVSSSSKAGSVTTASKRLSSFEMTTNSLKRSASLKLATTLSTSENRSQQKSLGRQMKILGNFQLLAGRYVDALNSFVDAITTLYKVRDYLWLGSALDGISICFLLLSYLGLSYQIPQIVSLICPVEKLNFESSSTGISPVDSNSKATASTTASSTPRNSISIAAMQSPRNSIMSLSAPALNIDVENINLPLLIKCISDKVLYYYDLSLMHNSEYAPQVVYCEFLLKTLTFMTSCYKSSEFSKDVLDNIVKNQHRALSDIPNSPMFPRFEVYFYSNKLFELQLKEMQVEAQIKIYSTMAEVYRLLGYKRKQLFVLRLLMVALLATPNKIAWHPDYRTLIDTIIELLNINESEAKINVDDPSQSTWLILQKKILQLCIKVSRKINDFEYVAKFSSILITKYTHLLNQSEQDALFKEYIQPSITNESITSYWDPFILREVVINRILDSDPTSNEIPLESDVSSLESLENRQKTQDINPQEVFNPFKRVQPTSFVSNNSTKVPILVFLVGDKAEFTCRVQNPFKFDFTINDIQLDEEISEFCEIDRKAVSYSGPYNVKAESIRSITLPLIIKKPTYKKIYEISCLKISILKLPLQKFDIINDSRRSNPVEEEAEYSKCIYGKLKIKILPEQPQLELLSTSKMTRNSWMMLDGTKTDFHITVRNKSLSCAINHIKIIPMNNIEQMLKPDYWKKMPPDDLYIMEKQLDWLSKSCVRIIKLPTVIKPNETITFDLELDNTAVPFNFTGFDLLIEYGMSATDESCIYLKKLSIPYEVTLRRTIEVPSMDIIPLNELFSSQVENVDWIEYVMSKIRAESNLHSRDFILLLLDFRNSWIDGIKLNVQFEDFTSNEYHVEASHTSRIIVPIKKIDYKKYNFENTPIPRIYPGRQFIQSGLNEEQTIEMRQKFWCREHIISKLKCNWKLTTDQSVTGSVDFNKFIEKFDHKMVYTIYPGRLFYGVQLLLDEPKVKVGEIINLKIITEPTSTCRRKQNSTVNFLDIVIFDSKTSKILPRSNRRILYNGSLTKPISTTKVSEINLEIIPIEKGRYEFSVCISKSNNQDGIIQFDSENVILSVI
The experiment is described as follows: tandem affinity purification.

Another experiment addresses T2, Trs85-TAP (from yeast) (budding yeast, UniProt P46944 1-698).
T2 sequence: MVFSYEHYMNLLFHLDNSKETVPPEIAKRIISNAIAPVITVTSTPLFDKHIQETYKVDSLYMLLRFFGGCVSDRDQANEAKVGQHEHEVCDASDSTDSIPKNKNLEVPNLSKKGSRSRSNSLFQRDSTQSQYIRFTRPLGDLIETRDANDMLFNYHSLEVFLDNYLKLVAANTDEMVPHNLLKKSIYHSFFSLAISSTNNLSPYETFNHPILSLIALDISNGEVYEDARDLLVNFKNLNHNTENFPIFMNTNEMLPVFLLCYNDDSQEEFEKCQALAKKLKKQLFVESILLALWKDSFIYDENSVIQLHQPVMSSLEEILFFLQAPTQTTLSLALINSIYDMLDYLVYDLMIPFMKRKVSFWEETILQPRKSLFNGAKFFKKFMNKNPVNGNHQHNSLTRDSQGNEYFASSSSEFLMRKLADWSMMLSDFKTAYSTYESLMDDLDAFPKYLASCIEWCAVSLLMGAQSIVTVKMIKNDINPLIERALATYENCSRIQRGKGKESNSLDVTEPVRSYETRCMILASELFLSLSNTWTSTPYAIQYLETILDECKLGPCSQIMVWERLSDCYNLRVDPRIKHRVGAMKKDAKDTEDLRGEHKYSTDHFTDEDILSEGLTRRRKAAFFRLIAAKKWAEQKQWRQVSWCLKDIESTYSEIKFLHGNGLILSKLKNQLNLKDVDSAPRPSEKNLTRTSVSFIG
As to the kind of experiment: tandem affinity purification.

The target of a further experiment is T3, Gdi1 (UniProt P39958 1-451).
T3 sequence: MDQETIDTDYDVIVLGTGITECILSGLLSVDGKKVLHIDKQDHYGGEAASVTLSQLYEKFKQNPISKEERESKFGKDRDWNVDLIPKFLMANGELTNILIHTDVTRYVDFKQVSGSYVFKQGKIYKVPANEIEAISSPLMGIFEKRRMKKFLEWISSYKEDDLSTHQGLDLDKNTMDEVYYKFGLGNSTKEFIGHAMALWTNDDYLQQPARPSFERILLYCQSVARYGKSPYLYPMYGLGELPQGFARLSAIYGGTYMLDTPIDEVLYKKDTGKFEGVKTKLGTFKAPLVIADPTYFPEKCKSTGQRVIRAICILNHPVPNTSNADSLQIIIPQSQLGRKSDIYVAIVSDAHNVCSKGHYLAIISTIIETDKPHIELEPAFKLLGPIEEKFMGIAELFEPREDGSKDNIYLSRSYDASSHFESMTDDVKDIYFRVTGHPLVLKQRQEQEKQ
As to the kind of experiment: SEC.

B1: Bet3 (endogenous, yeast) (natural protein)
chain: MVSTTQSRSLKAMGEEIWKNKTEKINTELFTLTYGSIVAQLCQDYERDFNKVNDHLYSMGYNIGCRLIEDFLARTALPRCENLVKTSEVLSKCAFKIFLNITPNITNWSHNKDTFSLILDENPLADFVELPMDAMKSLWYSNILCGVLKGSLEMVQLDCDVWFVSDILRGDSQTEIKVKLNRILKDEIPIGED
In the case of B1, the “stoichiometry N” value in the experiment with Trs120-TAP and in the experiment with Trs85-TAP (from yeast) was 2 in each case.

B2: prenylated Ypt1 (natural protein)
chain: not shown
modifications: prenylated with geranylgeranyl pyrophosphate in vitro; loaded with mantGDP
Regarding B2, in the experiment with Gdi1, the binding result is “binds”.

Usually stoichiometry N stands for the number of molecules, sites or subunits per partner or assembly.

The values are drawn from paper PMC5748984 (The Journal of Cell Biology, 2018).
